In US20250171505A1 (CENTRE NATIONAL DE LA RECHERCHE SCIENTIFIQUE CNRS, published 2025) one finds binding result, Kd and stoichiometry data, which are given here for three molecules.

Experiment [1] concerns the target T1, VSV Gth, soluble form of the ectodomain of G (amino acid residues 1-422, generated by thermolysine l (vesicular stomatitis virus, Indiana …, UniProt P03522 17-438)).
T1 sequence: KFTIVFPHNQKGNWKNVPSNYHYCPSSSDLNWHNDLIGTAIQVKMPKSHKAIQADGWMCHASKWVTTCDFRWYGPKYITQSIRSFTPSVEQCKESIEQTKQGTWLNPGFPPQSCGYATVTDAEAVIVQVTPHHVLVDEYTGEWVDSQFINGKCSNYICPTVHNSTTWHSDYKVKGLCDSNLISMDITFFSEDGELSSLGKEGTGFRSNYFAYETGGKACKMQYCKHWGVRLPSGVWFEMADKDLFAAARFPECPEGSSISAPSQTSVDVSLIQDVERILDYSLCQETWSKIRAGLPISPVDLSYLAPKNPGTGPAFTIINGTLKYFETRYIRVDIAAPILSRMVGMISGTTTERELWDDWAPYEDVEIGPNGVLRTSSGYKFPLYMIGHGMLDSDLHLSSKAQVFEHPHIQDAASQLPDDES
The experiment can be described thus: ITC at 20 C, pH 8.0.

The target in experiment [2] is T1, VSV Gth, soluble form of the ectodomain ….
For experiment [3] the target is unchanged. The experiment can be described thus: ITC at 20 C, pH 8.0, CR domain injected into Gth.

B1: CR1 monovalent domain of human LDL-R (isolated, GST removed) (receptor)
chain: not shown
notes: domain: CR1
Take B1: in experiment [1], the binding result is “no binding”.

B2: CR3 monovalent domain of human LDL-R (isolated, GST removed) (receptor)
chain: not shown
notes: domain: CR3
For B2, the Kd in experiment [2] amounted to 4.3 µM. The same molecule returned a stoichiometry in experiment [3] of 1.

B3: CR2 monovalent domain of human LDL-R (isolated, GST removed) (receptor)
chain: not shown
notes: domain: CR2
In experiment [2], B3 had a Kd of 7.3 µM. Also, the stoichiometry in experiment [3] is 1.
